Laboratory results taken from patent US20190382462A1 (published 2019).
Where no end group is shown, it is not given here.

Target: HRP-conjugated protein-A (UniProt P38507 37-477, HRP conjugate)
Assay: ELISA: HRP-protein A added to immobilized biotinylated CRF in the absence of CRFBP-Fc
Source text: Biotinylated CRF was immobilized on an avidin-coated ELISA plate. […] OD=optical density.

B1: Biotinylated CRF (corticotropin-releasing factor) (peptide, UniProt P06850 154-194, looked up)
peptide: SEEPPISLDLTFHLLREVLEMARAEQLAQQAHSNRKLMEII
modifications: ends and bridges not checked; also: biotinylated, site not given here
notes: Immobilized on an avidin-coated ELISA plate; also called corticotropin-releasing hormone; CRH
B1: no binding.
